# According to the supplement of paper PMC5998384:
# What was measured:
# HeLa Kyoto [1] = test: melting temperature (median over replicates), in situ; higher = more thermally stable
# HeLa Kyoto [2] = test: solubility change mitosis vs G1/S (difference of NP-40 vs SDS log2 ratios) (log2 ratio difference); higher = more soluble in mitosis
# HeLa Kyoto [3] = test: thermal stability score vs G1/S (z-score of summed log2 fold changes over temperatures); higher = more thermally stable than in G1/S
# HeLa Kyoto [4] = test: solubility in G1/S (NP-40 vs SDS abundance) (log2 ratio); higher = more soluble; conditions: cell cycle stage: G1/S
# [5] = cell cycle stage: early G1 (4.5 h after nocodazole release)
# 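Wherever melting temperature (median over replicates), in situ is given: HeLa Kyoto cells synchronized by double thymidine or nocodazole block, proteins quantified by TMT10plex mass spectrometry, three independent biological replicates.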
# 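Wherever solubility change mitosis vs G1/S (difference of NP-40 vs SDS log2 ratios) is given: synchronized HeLa Kyoto cells (double thymidine block for G1/S, nocodazole release for mitosis), protein amounts in NP-40 versus SDS lysates quantified by mass spectrometry, three biological replicates.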
# 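Wherever solubility in G1/S (NP-40 vs SDS abundance) is given: HeLa Kyoto cells arrested at G1/S by double thymidine block, proteins quantified by TMT10plex mass spectrometry in mild NP-40 versus SDS extracts, three biological replicates.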
# 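Wherever thermal stability score vs G1/S (z-score of summed log2 fold changes over temperatures) is given: synchronized HeLa Kyoto cells, proteins quantified by TMT10plex mass spectrometry, three biological replicates, mitosis taken 0.5 h after nocodazole release, G1/S directly after double thymidine block.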
sequence,measurement,setting,value
MDPLGAPSQFVDVDTLPSWGDSCQDELNSSDTTAEIFQEDTVRSPFLYNKDVNGKVVLWKGDVALLNCTAIVNTSNESLTDKNPVSESIFMLAGPDLKEDLQKLKGCRTGEAKLTKGFNLAARFIIHTVGPKYKSRYRTAAESSLYSCYRNVLQLAKEQSMSSVGFCVINSAKRGYPLEDATHIALRTVRRFLEIHGETIEKVVFAVSDLEEGTYQKLLPLYFPRSLKEENRSLPYLPADIGNAEGEPVVPERQIRISEKPGAPEDNQEEEDEGLGVDLSFIGSHAFARMEGDIDKQRKLILQGQLSEAALQKQHQRNYNRWLCQARSEDLSDIASLKALYQTGVDNCGRTVMVVVGRNIPVTLIDMDKALLYFIHVMDHIAVKEYVLVYFHTLTSEYNHLDSDFLKKLYDVVDVKYKRNLKAVYFVHPTFRSKVSTWFFTTFSVSGLKDKIHHVDSLHQLFSAISPEQIDFPPFVLEYDARENGPYYTSYPPSPDL [GDAP2],melting temperature,HeLa Kyoto [1]; cell cycle stage: G1/S,48.2 °C
same,melting temperature,HeLa Kyoto [1]; cell cycle stage: mitosis,49.1 °C
same,solubility change mitosis (log2),HeLa Kyoto [2],-0.148
same,thermal stability score,HeLa Kyoto [3]; [5],0.35
same,thermal stability score,HeLa Kyoto [3]; cell cycle stage: mitosis,0.405
same,solubility in G1/S (log2),HeLa Kyoto [4],0.111
MDPSLLRERELFKKRALSTPVVEKRSASSESSSSSSKKKKTKVEHGGSSGSKQNSDHSNGSFNLKALSGSSGYKFGVLAKIVNYMKTRHQRGDTHPLTLDEILDETQHLDIGLKQKQWLMTEALVNNPKIEVIDGKYAFKPKYNVRDKKALLRLLDQHDQRGLGGILLEDIEEALPNSQKAVKALGDQILFVNRPDKKKILFFNDKSCQFSVDEEFQKLWRSVTVDSMDEEKIEEYLKRQGISSMQESGPKKVAPIQRRKKPASQKKRRFKTHNEHLAGVLKDYSDITSSK [GTF2E2],melting temperature,HeLa Kyoto [1]; cell cycle stage: G1/S,48.9 °C
same,melting temperature,HeLa Kyoto [1]; cell cycle stage: mitosis,50.2 °C
same,solubility change mitosis (log2),HeLa Kyoto [2],0.135
same,thermal stability score,HeLa Kyoto [3]; [5],1.36
same,thermal stability score,HeLa Kyoto [3]; cell cycle stage: mitosis,3.1
same,solubility in G1/S (log2),HeLa Kyoto [4],0.797
MDPTAGSKKEPGGGAATEEGVNRIAVPKPPSIEEFSIVKPISRGAFGKVYLGQKGGKLYAVKVVKKADMINKNMTHQVQAERDALALSKSPFIVHLYYSLQSANNVYLVMEYLIGGDVKSLLHIYGYFDEEMAVKYISEVALALDYLHRHGIIHRDLKPDNMLISNEGHIKLTDFGLSKVTLNRDINMMDILTTPSMAKPRQDYSRTPGQVLSLISSLGFNTPIAEKNQDPANILSACLSETSQLSQGLVCPMSVDQKDTTPYSSKLLKSCLETVASNPGMPVKCLTSNLLQSRKRLATSSASSQSHTFISSVESECHSSPKWEKDCQESDEALGPTMMSWNAVEKLCAKSANAIETKGFNKKDLELALSPIHNSSALPTTGRSCVNLAKKCFSGEVSWEAVELDVNNINMDTDTSQLGFHQSNQWAVDSGGISEEHLGKRSLKRNFELVDSSPCKKIIQNKKTCVEYKHNEMTNCYTNQNTGLTVEVQDLKLSVHKSQQNDCANKENIVNSFTDKQQTPEKLPIPMIAKNLMCELDEDCEKNSKRDYLSSSFLCSDDDRASKNISMNSDSSFPGISIMESPLESQPLDSDRSIKESSFEESNIEDPLIVTPDCQEKTSPKGVENPAVQESNQKMLGPPLEVLKTLASKRNAVAFRSFNSHINASNNSEPSRMNMTSLDAMDISCAYSGSYPMAITPTQKRRSCMPHQQTPNQIKSGTPYRTPKSVRRGVAPVDDGRILGTPDYLAPELLLGRAHGPAVDWWALGVCLFEFLTGIPPFNDETPQQVFQNILKRDIPWPEGEEKLSDNAQSAVEILLTIDDTKRAGMKELKRHPLFSDVDWENLQHQTMPFIPQPDDETDTSYFEARNTAQHLTVSGFSL [MASTL],melting temperature,HeLa Kyoto [1]; cell cycle stage: G1/S,48.4 °C
same,melting temperature,HeLa Kyoto [1]; cell cycle stage: mitosis,50.5 °C
same,solubility change mitosis (log2),HeLa Kyoto [2],-0.0152
same,thermal stability score,HeLa Kyoto [3]; [5],2.99
same,thermal stability score,HeLa Kyoto [3]; cell cycle stage: mitosis,5.64
same,solubility in G1/S (log2),HeLa Kyoto [4],0.0696
MDQCVTVERELEKVLHKFSGYGQLCERGLEELIDYTGGLKHEILQSHGQDAELSGTLSLVLTQCCKRIKDTVQKLASDHKDIHSSVSRVGKAIDKNFDSDISSVGIDGCWQADSQRLLNEVMVEHFFRQGMLDVAEELCQESGLSVDPSQKEPFVELNRILEALKVRVLRPALEWAVSNREMLIAQNSSLEFKLHRLYFISLLMGGTTNQREALQYAKNFQPFALNHQKDIQVLMGSLVYLRQGIENSPYVHLLDANQWADICDIFTRDACALLGLSVESPLSVSFSAGCVALPALINIKAVIEQRQCTGVWNQKDELPIEVDLGKKCWYHSIFACPILRQQTTDNNPPMKLVCGHIISRDALNKMFNGSKLKCPYCPMEQSPGDAKQIFF [RMND5A],melting temperature,HeLa Kyoto [1]; cell cycle stage: G1/S,51.1 °C
same,solubility change mitosis (log2),HeLa Kyoto [2],-0.047
same,thermal stability score,HeLa Kyoto [3]; [5],0.294
same,thermal stability score,HeLa Kyoto [3]; cell cycle stage: mitosis,0.672
same,solubility in G1/S (log2),HeLa Kyoto [4],0.298
MDQPFTVNSLKKLAAMPDHTDVSLSPEERVRALSKLGCNITISEDITPRRYFRSGVEMERMASVYLEEGNLENAFVLYNKFITLFVEKLPNHRDYQQCAVPEKQDIMKKLKEIAFPRTDELKNDLLKKYNVEYQEYLQSKNKYKAEILKKLEHQRLIEAERKRIAQMRQQQLESEQFLFFEDQLKKQELARGQMRSQQTSGLSEQIDGSALSCFSTHQNNSLLNVFADQPNKSDATNYASHSPPVNRALTPAATLSAVQNLVVEGLRCVVLPEDLCHKFLQLAESNTVRGIETCGILCGKLTHNEFTITHVIVPKQSAGPDYCDMENVEELFNVQDQHDLLTLGWIHTHPTQTAFLSSVDLHTHCSYQLMLPEAIAIVCSPKHKDTGIFRLTNAGMLEVSACKKKGFHPHTKEPRLFSICKHVLVKDIKIIVLDLR [STAMBPL1],melting temperature,HeLa Kyoto [1]; cell cycle stage: G1/S,50.3 °C
same,melting temperature,HeLa Kyoto [1]; cell cycle stage: mitosis,51 °C
same,solubility change mitosis (log2),HeLa Kyoto [2],-0.137
same,thermal stability score,HeLa Kyoto [3]; [5],-0.397
same,thermal stability score,HeLa Kyoto [3]; cell cycle stage: mitosis,-0.032
same,solubility in G1/S (log2),HeLa Kyoto [4],-0.0141
